Reference: patent publication US11427643B2, “Targeted protein degradation” (GLAXOSMITHKLINE INTELLECTUAL PROPERTY DEVELOPMENT LIMITED, priority 2017, dated 2022)

Tests used:
[1] = system: primary T-cells co-cultured with ARH-77-10B5 cells; assay: Cytokine release from CAR-transduced primary T-cells co-cultured with BCMA-expressing ARH-77-10B5 cells, with or without lenalidomide (MSD V-plex); type: cell-based, human; details: 10 μM lenalidomide compared with no lenalidomide treatment; after antigen presentation, 24 h co-culture 1:1 with ARH-77-10B5; FIG. 7
Experimental: For lentiviral vector production, 3.0×10^7 LentiX 293T (HEK 293T) cells were seeded in 20 mL DMEM (Gibco) and were incubated overnight at 37° C. with 5% CO2. LentiX cells were transfected by mixing, for example, 21 μg of transfer vector containing the construct, 3.75 μg ViraSafe pRSV-Rev, 5.25 μg ViraSafe pCMV-VSVG, 7.5 μg ViraSafe pCgp V-(gag-pol), 75 μg jetPRIME (Polyplus) and […] jetPRIME Buffer (Polyplus). After 2 days, supernatants were clarified and virus was concentrated and purified by ultracentrifugation on a 20% sucrose cushion using Ultrapure sucrose (ThermoFisher) in 50 ml Oak Ridge PPCO ultracentrifugation tubes (ThermoFisher). Lentiviral vectors were produced for CONSTRUCT 4 and CONSTRUCT 5 using the method described above. […]
7 days after transduction, lenalidomide at a stock concentration of 10 mM in 100% DMSO was diluted in TEXMacs media to achieve a stock concentration of 250 μM, and 5×10^4 T-cells were incubated at a final compound concentration of 10 μM or 0 μM (DMSO in media) for 16 h at 37° C. with 5% CO2. […] Supernatants were analysed for cytokine levels using MSD V-plex Proinflammatory Panel 1 Human Kit (MSD) and MSD Sector Imager (MSD).

NFAT-luc2 Jurkat cells = assay: Lenalidomide-induced degradation of anti-BCMA CAR constructs transfected in Jurkat cells (flow cytometry, BCMA-Fc staining); type: cell-based; details: 10 μM lenalidomide vs DMSO, 24 hour, FIG. 5
Experimental: NFAT-luc2 Jurkat cells (Promega) to a density of 2×10^5 cells/ml were cultured in RPMI medium 1640 (1×) without L-glutamine with phenol red (Gibco), 10% (v/v) Fetal Bovine Serum (FBS) Heat-Inactivated (Gibco), 1% (v/v) Minimum essential medium non-essential amino acids (MEM NEAA) (ThermoFisher), 1% (v/v) Sodium Pyruvate (Sigma), 1% (v/v) L-Glutamine (Gibco). 20 μg of plasmid DNA was mixed with 8×10^6 NFAT-luc2 Jurkat cells and cells were transfected using the 4D-Nucleofector (Lonza) with cell Line SE Nucleofector kit (Lonza) by following manufacturer instructions with program CL-120. Cells were incubated at 37° C. with 5% CO2 for 48 h. Lenalidomide at a stock concentration of 10 mM in 100% DMSO was diluted in Jurkat media to achieve a stock concentration of 250 μM. Using the 250 μM stock, NFAT-luc2 Jurkat cells were incubated at a final compound concentration of 10 μM or 0 μM (DMSO in media) for 24 hour at 37° C. with 5% CO2. Final DMSO concentration was 0.1% in all wells. Cells were then stained with AlexaFluor 647 conjugated BCMA-Fc to label the anti-BCMA CAR. Measurements were made using a Cytoflex S (Beckman Coulter) and data analysed using FlowJo.

B1: CONSTRUCT 4: conventional anti-BCMA CAR: scFv, CD8a hinge and transmembrane, 4-1BB co-stimulatory, CD3 intracellular domains; no degron (control) (protein)
chain: MALPVTALLLPLALLLHAARPQVQLVQSGAEVKKPGSSVKVSCKGSGYTFTNYWMHWVRQAPGQGLEWIGATYRGHSDTYYNQKFKGRATLTADTSTSTAYMELSSLRSEDTAVYYCTRGAIYDGYDVLDNWGQGTLVTVSSGGGGSGGGGSGGGGSGGGGSDIQMTQSPSSLSASVGDRVTITCSASQDISNYLNWYQQKPGKAPKLLIYYTSNLHSGVPSRFSGSGSGTDFTLTISSLQPEDFATYYCQQYRKLPWTFGQGTKLEIKRFVPVFLPAKPTTTPAPRPPTPAPTIASQPLSLRPEACRPAAGGAVHTRGLDFACDIYIWAPLAGTCGVLLLSLVITLYCNHRNKRGRKKLLYIFKQPFMRPVQTTQEEDGCSCRFPEEEEGGCELRVKFSRSADAPAYQQGQNQLYNELNLGRREEYDVLDKRRGRDPEMGGKPRRKNPQEGLYNELQKDKMAEAYSEIGMKGERRRGKGHDGLYQGLSTATKDTYDALHMQALPPR
modifications: Construct 4 Amino Acid Sequence
[1]
  TNFα, IL2 and IFN-γ levels in T-cell supernatants: increased levels of cytokines concentrations
NFAT-luc2 Jurkat cells
  expression level of CAR molecules on the surface of Jurkat cells: unaffected
